# Measured values taken from US20240254220A1, “COMBINED THERAPY USING ANTI-CD300C ANTIBODY” (CentricsBio, Inc., priority 2021, published 2024).
# T1: CD300a antigen (Homo sapiens, UniProt Q9UGN4)
# T1 construct: purchased Sino Biological 12449-H08H
# T1 sequence (Q9UGN4 18-180 limits assumed): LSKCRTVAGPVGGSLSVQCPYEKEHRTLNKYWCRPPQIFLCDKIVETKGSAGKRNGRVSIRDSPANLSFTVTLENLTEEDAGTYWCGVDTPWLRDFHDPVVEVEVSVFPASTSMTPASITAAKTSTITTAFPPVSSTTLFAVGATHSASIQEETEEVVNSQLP
# T2: CD300c antigen (Homo sapiens, UniProt Q08708)
# T2 sequence (Q08708 21-224): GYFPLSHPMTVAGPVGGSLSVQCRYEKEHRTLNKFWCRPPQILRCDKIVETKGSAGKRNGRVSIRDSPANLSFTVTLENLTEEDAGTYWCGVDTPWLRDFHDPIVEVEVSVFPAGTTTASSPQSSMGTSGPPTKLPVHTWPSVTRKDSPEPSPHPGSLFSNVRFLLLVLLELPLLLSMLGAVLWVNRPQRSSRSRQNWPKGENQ
# Key:
# [1] = test system: colon cancer cell line (CT26) tumor; assay: Nanostring Immune profiling of CT26 tumor tissue; assay type: in vivo, BALB/c mice; details: 25 mg/kg i.p., tumor RNA, vs control
# Protocol: In order to identify changes in expression of immune cell- and tumor microenvironment-related markers when solid cancer models are administered the anti-CD300c monoclonal antibody (CL7) produced in Example 1, a colon cancer cell line (CT26) at 2×10^5 cells was transplanted by subcutaneous injection into 8-week-old BALB/c mice to prepare syngeneic mouse tumor models. Animal breeding and experiments were all conducted in a specific pathogen free (SPF) facility. In addition, 12 days after transplantation of the colon cancer cell line, the mice with a tumor size of 50 mm^3 to 100 mm^3 were separately administered the anti-CD300c monoclonal antibody, and for a control group, the mice were injected with the same amount of phosphate buffered saline (PBS). The mice were intraperitoneally injected with 25 mg/kg twice a week for two weeks over a total of 4 times. On day 25 after the injection, the mice were euthanized, and the tumor tissue was prepared. RNA was extracted and purified therefrom, and changes in dendritic cell markers, macrophage markers, tumor microenvironment (TME) markers, Th1 response markers, or Th2 response markers were identified through Nanostring Immune profiling.
# On the basis of the Nanostring Immune profiling results obtained in Example 2.1, it was identified which immune checkpoint markers show a significant difference in expression compared with the control group when syngeneic mouse tumor models are administered the anti-CD300c monoclonal antibody.
# [2] = test system: MDA-MB-231 (human breast cancer cell line); assay: MDA-MB-231 cancer cell growth inhibition (CCK-8); assay type: cell-based; details: 10 μg/mL each, 5 days
# Description: In order to identify cancer cell growth inhibitory effects by combined administration of the anti-CD300c monoclonal antibody CL7 and an immunotherapeutic agent, the cancer cell growth inhibitory effects were compared using A549 (human lung cancer cell line) and MDA-MB-231 (human breast cancer cell line). Specifically, the cells were dispensed into a 96-well plate at 2×10^4 cells (A549) or 3×10^4 cells (MDA-MB-231) under 0% fetal bovine serum (FBS) conditions, and at 6×10^3 cells (A549) or 1×10^4 cells (MDA-MB-231) under 0.1% fetal bovine serum conditions. Subsequently, the cells were treated with the anti-CD300c monoclonal antibody and Imfinzi at 10 μg/mL alone or in combination, followed by incubation for 5 days. For a control group, the cells were treated with the same amount of phosphate buffer solution (PBS). Then, the cells were treated with CCK-8 (DOJINDO), and the absorbance was measured at OD 450 nm. The results are shown in FIG. 33 (A549) and FIG. 34 (MDA-MB-231).
# CD300a antigen = biological target: T1, CD300a antigen; assay: CD300a cross-reactivity binding ELISA; details: CD300a antigen 0.039, 0.63, 10 μg/mL
# Protocol: More specifically, the CD300a antigen (from Sino Biological) was used to treat at concentrations of 0.039 μg/mL, 0.63 μg/mL, and 10 μg/mL, and then binding ELISA was performed by the same method as in Experimental Example 2.1.
# CD300c antigen = biological target: T2, CD300c antigen; assay: Binding ELISA of CL7 (Experimental Example 2.3); details: CL7 diluted from 10 μg/mL
# Protocol: CD300c antigen (250 ug/mL) was diluted to a concentration of 800 ng/mL in coating buffer (0.1 M sodium carbon ate, pH 9.0), placed into a 96-well microplate at 100 μL per well, and incubated at 4° C. overnight. The next day, the microplate was washed three times with 200 μL of PBST. Thereafter, 200 μL of a blocking buffer (5% skim milk) was added thereto, followed by blocking at room temperature for 1 hour. The anti-CD300c monoclonal antibody CL7 was diluted to 200 μg/mL in PBS, and the concentration thereof was checked by measurement using Nanodrop (product name: NanoDrop One/One, manufactured by Thermo Fisher Scientific). Subsequently, CL7 was diluted in quadruplicate with PBS starting from 10 μg/mL, and added at 100 μL each, followed by incubation at room temperature for 1 hour. After the incubation, the microplate was washed three times with […] of PBST. A secondary antibody (conjugated anti-Fc IgG) was diluted 1:10,000 in blocking buffer, and added at 100 μL, followed by incubation at room temperature for 1 hour, and then washed three times with 200 μL of PBST. […] Then, 50 μL of 1 N sulfuric acid was added to stop development, and measurement was performed at 450 nm using a microplate reader (product name: Varioskan LUX) to obtain binding affinity results.
# B16F10 melanoma cells = assay: In vivo cancer growth inhibition, B16F10 melanoma model; set-up: species or system C57BL/6 mice; details: CL7 25 mg/kg, α-PD-1 10 mg/kg, α-CTLA4 4 mg/kg i.p. twice a week, 4 times; 20 days
# Protocol: In order to identify whether the anti-CD300c monoclonal antibody CL7 is effective in other carcinomas in addition to a CT26 colon cancer mouse model, an additional experiment was conducted with melanoma mouse models. B16F10 melanoma cells at 7×10^5 cells were transplanted by subcutaneous injection into 8-week-old male C57BL/6 mice to prepare syngeneic mouse tumor models. Animal breeding and experiments were all conducted in a SPF facility. On day 8 after transplantation of the melanoma cell line, the mice with a tumor size of 50 mm^3 to 100 mm^3 were intraperitoneally injected with 25 mg/kg of CL7, 10 mg/kg of α-PD-1, and 4 mg/kg of α-CTLA4. More specifically, the mice were injected, twice a week for 2 weeks (over a total of 4 times), with each of the anti-CD300c monoclonal antibody, the anti-PD-1 antibody, the anti-CD300c monoclonal antibody+the anti-PD-1 antibody (Combo), and the anti-CD300c monoclonal antibody+the anti-PD-1 antibody+the anti-CTLA-4 antibody (Triple), and for a control group, the mice were injected with the same amount of phosphate buffered saline (PBS). The cancer size was measured for 20 days.
molecule,measurement,setting,value
"CL7: anti-CD300c monoclonal antibody, VH3VL1 phage library, VH SEQ ID 327, VL SEQ ID 328 (antibody, V domains shown, CL7 Heavy Chain Variable Region; CL7 Light Chain Variable Region) VH: EVQLLESGGGLVQPGGSLRLSCAASGFTFSRYAMSWVRQAPGKGLEWVSAISGSGGSTYYADSVKGRFTISRDNSKNTLYLQMNSLRAEDTAVYYCARSSQGIFDIWGQGTLVTVSS VL: QSVLTQPPSASGTPGQRVTISCSGNNIGTRRVHWYQQLPDTAPKLLIYSKNNRPSGVPDRFSGSKSGTSASLAISGLRSEDEADYYCAAWDDSLSGPVFGGGTKLTVL","expression of M1 macrophage markers CCR7, CD80",[1],significantly increase
same,"expression of Th1 response markers Tbx21, Stat1, Stat4, Ifn-g, Cxcr3",[1],increase
same,"expression of agonistic immune checkpoints ICOS, OX40, Gitr, Cd27, Cd28",[1],increases
same,"expression of dendritic cell markers Bst2, CCL8, Xcl1",[1],significantly increase
same,"expression of inhibitory immune checkpoints PD-1, CTLA-4, Lag3",[1],increases
same,"expression of tumor microenvironment markers vegfa, pdgfrb, Col4a1, Hif1a",[1],reduction
same,cancer cell growth inhibitory effect compared with control group,"[2]; MDA-MB-231, 0.1% FBS (second statement)",19%
same,cancer cell growth inhibitory effect compared with control group,"[2]; MDA-MB-231, 0.1% FBS as printed (first statement)",19%
same,binding to antigens other than CD300c (CD300a),CD300a antigen,did not bind to antigens other than CD300c
same,binding to CD300c,CD300c antigen,bound to CD300c in a concentration-dependent manner
same,cancer growth (cancer size),B16F10 melanoma cells,inhibited
